Laboratory results published in patent publication US20240218054A1 (MABLOC, published 2024).

B1: ADI-49039 (antibody, V domains shown)
VH: QVQLQESGPGLVKPSETLSLTCAVSGYSISSGFYWGWIRQPPGKGLEWIGSMYQSGITYYNPSLKSRVTISVDTSKSQFSLKLTSVTAADTAMYYCARNAPENYYGSGRESFDIWGQGTMVTVSS
VL: QSVLTQPPSVSAAPGQKVTISCSGSSSNIGNNYVSWYQQLPGAAPKLLIYDNKKRPSGIPDRFSGSASGTSATMGITGLQTGDEADYYCGTWDSSLSAWVFGGGTKVTVL
notes: full-length IgG; also called Antibody Number 1
B2: ADI-42229 (antibody, V domains shown)
VH: QVQLQESGPGLVKPSETLSLTCAVSGYSISSGFYWGWIRQPPGKGLEWIGSMYHSGITYYNPSLKSRVTISVDTSKNQFSLKLTSVTAADTAMYYCARNAPENYYGSGRESFDIWGQGTTVTVSS
VL: QSVVTQPPSVSAAPGQKVTISCSGSSSNIGNNYVSWYQQFPRTAPKLLIYDNKKRPSGIPDRFSGSASGTSATLGITGLQTGDEADYYCGTWDSSLSAWVFGGGTKVTVL
notes: full-length IgG; also called Antibody Number 3
B3: ADI-42225 (antibody, V domains shown)
VH: QVQLQESGPGLVKPSGTLSLTCAVSGGSITSSNWWSWVRQPPGKGLEWIGDIYHSGSTSYNPSLKSRVTISVDKSKNHFSLKLTSVTAADTAVYYCARIAAGYSTSWYYFDYWGQGTLVTVSS
VL: QSALTQPPSVSAAPGQKVTISCSGSSSNIGNSYVSWYQQVPGTAPKLLIYDNNKRPSGIPDRFSGSKSGTSATLGITGLQAGDEADYYCGTWDTSLSAGRVFGRGTKLTVL
notes: full-length IgG; also called Antibody Number 10
B4: ADI-48462 (antibody, V domains shown)
VH: QVQLVQSGGGVVQPGRSLRLSCAASGFTFSSYGMHWVRQAPGKGLEWVAVIWYDGSNKYYADSVKGRFTISRDNSKNTLYLQMNSLRAEDTAVYYCARDYYGSGDGYFDYWGQGTTVTVSS
VL: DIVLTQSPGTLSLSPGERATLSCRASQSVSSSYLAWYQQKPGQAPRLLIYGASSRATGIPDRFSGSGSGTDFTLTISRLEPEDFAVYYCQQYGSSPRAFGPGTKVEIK
notes: full-length IgG; also called Antibody Number 100
B5: ADI-45127 (antibody, V domains shown)
VH: EVQLVESGPVLVKPTETLRLTCTVSGFSLSNTKLGVSWIRQPPGKALEWLAHIFSNAEKSSSKSLKSRLSISQDTSKSLVVLTMTNMDPVDTATYFCARIPVEYGTPRGSFDTWGQGTTVTVSS
VL: QSVLTQPPSASGSPGQSVTISCAGTRSDVGGYNFVSWYQQHPGKAPKLLIYEVNKRPSGVPDRFSGSKSANTASLTVSGLQAEDEAEYFCSSYGGNNDLVFGGGTKVTVL
notes: full-length IgG; also called Antibody Number 101
B6: ADI-42200 (antibody, V domains shown)
VH: EVQLVESGGGVVQPGRSLRLSCAASGLTFSTYTLHWVRQAPGKGLEWVAVISSDGGNKYYADSVKGRFTISRDSSKNTLYLQMNSLRTEDTAVYYCAGGSPDYWGQGALVTVSS
VL: EIVMTQSPATLSLSPGERGTLSCRTSQSVSSFLAWYQQKPGQAPRLLMYDASNRATGIPARFSGSGSGTDFTLTISSLEPEDFAVYYCQQRSNWPYTFGQGTKVDIK
notes: full-length IgG; also called Antibody Number 102
B7: ADI-50203 (antibody, V domains shown)
VH: EVQLVESGGGVVQPGRSLRLSCVPSGFTFSSYAMHWVRQAPGKGLEWVAMMSYDGGDKNYADSVKGRFTISRDNSKNTLYLQMRSLRAEDTAIYYCARAYDSRGYYYIEHWGQGTLVTVSS
VL: GIQLTQSPSTLSASVGDRVTITCRASQSVSDWLAWYQQKPGRAPNLLIYRASSLQSGVPSRFSGSGSGTEFTLTINSLQPDDFATYYCQQYKTYWTFGQGTKVEIK
notes: full-length IgG; also called Antibody Number 103
B8: ADI-42149 (antibody, V domains shown)
VH: QVQLVQSGAEVRKPGASVKVSCKASGYTFTSYGISWVRQAPGQGLEWMGWISTYNGNTNYAQKLQGRVTMTTDTSTSTAYMELRSLRSDDTAVYYCAREIDSNYVFDYWGQGTLVTVSS
VL: QSVLTQPASVSGSPGQSITISCTGTSSDVGGYNYVSWYQQHPGKAPKLMIYEVSNRPSGVSNRFSGSKSGNTASLTISGLQAEDEADYYCSSYTSSGTNIFGTGTKLTVL
notes: full-length IgG
B9: ADI-42181 (antibody, V domains shown)
VH: EVQLVESGGGLVQPGGSLRLSCAASGFTFSNYWMNWVRQAPGKGLEWVANIKQDGSEKYYVDSVKGRFTISRDNAKNSLYLQMNSLRAEDTAVYYCARKLSYSSGWYYFDYWGQGTLVTVSS
VL: DIVMTQTPATLSVSPGERATLSCRASQSVSSNVAWYQQKPGQAPRLLIHGASTRATGIPARFSGSGSGTEFTLTISSLQSEDFAVYYCQQYNNWPPLTFGGGTKLEIK
notes: full-length IgG
B10: ADI-45126 (antibody, V domains shown)
VH: EVQLVESGGGLVQPGGSLRLSCAASGFTFSDHYMDWVRQAPGKGLEWVGRSTNKPNSYTTTYAASVRGRFTISRDESKNSLYLQMNSLKSDDTAVYYCVTTTVILFDYWGQGTLVTVSS
VL: SYELTQPPSVSVSPGQTARITCSGDALPKKYVYWFQQKSGQAPVLVIYEDRRGPSGIPERFSGSTSGTMATLTIRGAQVEDEADYFCYSTDSSGLLGVFGGGTKLTVL
notes: full-length IgG; also called Antibody Number 106
B11: ADI-45074 (antibody, V domains shown)
VH: QVQLQQWGAGLLKPSETLSLTCAVYGGSFSGYYWSWIRQPPGKGLEWIGEINHRGSTDYNPSLKSRVTMSVDTSKNQFSLRLSSVTAADTALYYCARGRLAWGLRGQKSPNFFAYWGQGATVTVSS
VL: DIQMTQSPDSLAVSLGERATINCKSSQSVFYSSNSQNYLAWYQQKPGQPPKLLIYWASTRESGVPDRFSGSGSATDFSLTISSLQAEDVAVYYCQQFHSPPWTFGQGTKLEIK
notes: full-length IgG
B12: ADI-49041 (antibody, V domains shown)
VH: EVQLVESGGGLVKPGGSLRLSCAASGFTFSHAWMTWVRQAPGKGLEWVGRIKSETDGGTANYAAPVKGRFTISRDDSKNTVYLQMVSLKTEDTAVYYCATAGIFGVVIMKGFDHWGQGTTVTVSS
VL: DIVMTQSPSTLSASVGDRVVITCRASQSISNWLAWYQQKSGKAPKLLIYKASRLESGVPSTFSGSGSGTEFTLTISSLQADDFASYYCQQYNDYPWTFGQGTKVEIK
notes: full-length IgG
B13: ADI-42227 (antibody, V domains shown)
VH: EVQLLESGAEVKEPGSSVKVSCKPSGGTFSSYVISWVRQAPGQGLEWMGGIIPIFGTPNYAQKFQGRVTITADDSTSTAHMELSSLTSDDTAVYYCARETYYYGSGSVPVHDWGQGTLVTVSS
VL: EIVMTQSPSSLSASVGDRVTITCRASQGIRNDLGWYQQKPGKAPKRLIYAASSLQSGVPSRFSGSGSGREFTLTISSLQPEDFATYYCLQHNTYPWTFGQGTKVEIK
notes: full-length IgG
B14: ADI-49139 (antibody, V domains shown)
VH: EVQLVETGSGLVRPSGTLSLTCAVSGDSISSNNWWSWVRQPPGKGLEWIGEIYHSGSTSYNPSLKSRVTISIDKSNNHFSLKLTSVTAADTAVYYCAKDMWAGTTTNWFGPWGQGTLVTVSS
VL: QSVLTQPPSVSAAPGQKVTISCSGSSSNIGYSHVSWYQQLPGTAPKVLIYDNDKRPSGIPDRFSGSKSGTSATLGITGLQTGDEADYYCGTWDTSLGVVFGGGTKLTVL
notes: full-length IgG; also called Antibody Number 11
B15: ADI-50220 (antibody, V domains shown)
VH: EVQLVESGGGVVQPGRSLRLSCAASGFIFSSNSMHWVRQAPGKGLKWVAIISNDGRNKFYADAVKGRFTVSRDNSKNTLYLQMNSLRPEDTAVYYCARGYDSSGYWGFGDNWGQGTLVTVSS
VL: DIQVTQSPSTLSASVGDRVSITCRASQTISSWLAWYQQKPGKAPKLLMYKASNLQSGVPSRFTGSGSGTEFTLTISSLQPDDFATYYCQQYYSYPYTFGPGTKVDIK
notes: full-length IgG; also called Antibody Number 110
B16: ADI-42141 (antibody, V domains shown)
VH: QVQLVQSGGGLVQPGGSLRLSCAASGFTFSDHYMDWVRQAPGKGLEWVGRTRNKANSYTTKYAASVKGRFTISRDDSKNSLYLQMNSLKTEDTAVYYCARVEGGAWGAFDIWGQGTTVTVSS
VL: SYVLTQPPSVSVSPGQTARITCSGDALPKQYGYWYQQKPGQAPVLVIYKDSERPSGIPERFSGSSSGTTVTLTISGVQAEDEADYYCQSADRSGTVVFGGGTKLTVL
notes: full-length IgG; also called Antibody Number 111
B17: ADI-42216 (antibody, V domains shown)
VH: QVTLKESGPVLVKPTETLTLTCTVSGFSLSNTKMGVTWIRQPPGKALEWLAHIFSNDEKSCNTSLKSRLTISKDTSKSQVVLTMTNMDPVDTATYYCARLWFTEYPGAFDIWGQGTMVTVSS
VL: QAVVTQPPSASGSPGQSVTISCTGTSSDVGGYNYVSWYQQHPGKAPKLMVYEVTKRPSGVPDRFSGSKSGNAASLTVSGLQAEDEAEYYCSSYAGSNALVFSGGTKLTVL
notes: full-length IgG; also called Antibody Number 112
B18: ADI-50534 (antibody, V domains shown)
VH: EVQLQESGPGLVKPSETLSLTCTVSGGSISSSSYYWGWIRQPPGKGLEWIGSIYYSGSTYYNPSLKSRVTISVDTSKNQFSLKLSSVTAADTAVYYCARHSSGSYYLAGYYFDYWGQGTLVTVSS
VL: NFMLTQPHSVSESPGKTVTISCTRSSGSIASNYVQWYQQRPGSAPTTVIYEDNQRPSGVPDRFSGSIDSSSNSASLTISGLKTEDEADYYCQSYDSSNWVFGGGTKLTVL
notes: full-length IgG
B19: ADI-49140 (antibody, V domains shown)
VH: EVQLVESGGGLVQPGGSLRLSCAASGFTFSDHYMDWVRQAPGRGLEWVGRSRNKVNSYTTDYAASVKGRFTISRDDSKNSLFLRMNSLKTEDTAVYYCARLTDSGYDDWGLGTLVTVSS
VL: QPELTQPPSVSVSPGQTARITCSGDALSKQYAYWYQQKPGQAPVVVIYKDSERPSGIPERFSGSRSGTTVTLTISGVQAEDEADYYCHSPDSHVVFGGGTKLTVL
notes: full-length IgG
B20: ADI-46741 (antibody, V domains shown)
VH: EVQLVESGPGLVKPSETLSLTCTVSGGSISSYYWSWIRQPPGKGLEWIGYIYYSGSTNYNPSLKSRVTISVDTSKNQFSLKLSSVTAADTAVYYCARETCSGGSCYYRVGSAFDIWGQGTTVTVSS
VL: SYELIQLPSASVAPGKTARITCGGNNIGSKSVHWYQQKPGQAPVLVVYDDSDRPSGIPERFSGSNSGNTATLTISRVEAGDEADYYCQVWDSSSDHEVFGGGTKLTVL
notes: full-length IgG; also called Antibody Number 115
B21: ADI-42195 (antibody, V domains shown)
VH: EVQLLESGGGMVQPGRSLRLSCAASGFTFDDYDMHWVRQGPGKGLEWVSGISWNSGGRGYADSVKGRFTISRDNAKNSLYLQMNSLRVEDTALYYCVKDYCSGGRCYSFDYWGQGTLVTVSS
VL: DIQMTQSPSSLSASVGDRVTITCQASQDISNYLNWYQQKPGKAPKLLIYDVSKLKTGVPPRFSGSGSGTDFTFTISSLQPEDIATYYCQQWGTFGQGTKVDIK
notes: full-length IgG; also called Antibody Number 116
B22: ADI-42172 (antibody, V domains shown)
VH: QVQLVESGGGVVQPGRSLRLSCAASGFTFSSYGMHWVRQAPGKGLEWVAVMSYDGSNKYYADSLKGRFTISRDNSKNTLYLQMNSLRAEDTAVYFCAKAYDSSAYYYLDYWGQGTLVTVSS
VL: EIVLTQSPSTLSASVGDRVTITCRASQSISDWLAWYQQKPGKAPNLLIYRASSLESGVPSRFSGSGSGTEFTLTISSLQPDDFATYYCQQYNRYPYTFGQGTKVEIK
notes: full-length IgG; also called Antibody Number 117

Each binder was assayed against T1, recombinant YFV E protein (soluble E, sE; YFV Asibi strain) (Yellow fever virus, Asibi strain, UniProt Q6DV88 286-678) (assay: BLI monovalent (IgG on tip)).
T1 construct: also called YFV E antigen; YFV E monomer
T1 sequence (Q6DV88 286-678): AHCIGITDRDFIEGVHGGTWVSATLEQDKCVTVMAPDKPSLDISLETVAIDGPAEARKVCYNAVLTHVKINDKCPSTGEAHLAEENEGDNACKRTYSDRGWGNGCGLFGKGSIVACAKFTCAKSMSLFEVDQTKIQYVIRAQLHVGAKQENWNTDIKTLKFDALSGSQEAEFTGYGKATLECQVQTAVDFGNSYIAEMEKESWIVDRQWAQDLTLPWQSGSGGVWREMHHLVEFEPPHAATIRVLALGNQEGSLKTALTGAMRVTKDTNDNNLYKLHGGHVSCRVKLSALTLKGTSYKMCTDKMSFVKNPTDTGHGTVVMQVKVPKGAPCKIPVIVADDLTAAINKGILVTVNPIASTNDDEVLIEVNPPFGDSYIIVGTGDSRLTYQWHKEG

**Q.** For B1, which Kd is on record?
**A.** 415 nM

**Q.** How did the Kd turn out when B2 was run?
**A.** 7.87 nM

**Q.** Which Kd does the source give for B3 here?
**A.** 31.5 nM

**Q.** For B4, which Kd is on record?
**A.** > 100 nM

**Q.** Which Kd does the source give for B5 here?
**A.** 6.69 nM

**Q.** With B6 as the binder, how does the Kd read?
**A.** 5.63 nM

**Q.** Which Kd does the source give for B7 here?
**A.** 22.4 nM

**Q.** With B8 as the binder, how does the Kd read?
**A.** 177 nM

**Q.** B9 was tested. Which Kd did it give?
**A.** 31.5 nM

**Q.** Which Kd does the source give for B10 here?
**A.** 1.68 nM

**Q.** Which Kd does the source give for B11 here?
**A.** 0.699 nM

**Q.** B12 was tested. Which Kd did it give?
**A.** 0.997 nM

**Q.** For B13, which Kd is on record?
**A.** 0.658 nM

**Q.** How did the Kd turn out when B14 was run?
**A.** 3.45 nM

**Q.** Which Kd does the source give for B15 here?
**A.** 3.64 nM

**Q.** With B16 as the binder, how does the Kd read?
**A.** 1.75 nM

**Q.** How did the Kd turn out when B17 was run?
**A.** 11.4 nM

**Q.** How did the Kd turn out when B18 was run?
**A.** > 100 nM

**Q.** How did the Kd turn out when B19 was run?
**A.** 1.04 nM

**Q.** How did the Kd turn out when B20 was run?
**A.** > 100 nM

**Q.** How did the Kd turn out when B21 was run?
**A.** 1.86 nM

**Q.** Which Kd does the source give for B22 here?
**A.** 129 nM
